Assay results: paper PMC4135013

Columns and labels:
[1] = biological target: soluble form of recombinant mouse CD16 (sCD16) (mouse); assay: ELISA
[2] = biological target: soluble form of recombinant mouse CD16 (sCD16) (mouse); assay: SPR

Substance	Kd [1]	Kd [2]
OVA-IC (soluble immune complex of OVA and rabbit anti-OVA IgG) (from UniProt P01012 1-386)	0.09 µM	
malondialdehyde-modified low-density lipoprotein (MDALDL)		25 µM
peroxidase/anti-peroxidase immune complex (PAP-IC)		0.078 µM
